# Laboratory results as given in IntAct's records for PubMed 20506337.
# B1: AH receptor-interacting protein (Homo sapiens), O00170 (parent)
# chain: MADIIARLREDGIQKRVIQEGRGELPDFQDGTKATFHYRTLHSDDEGTVLDDSRARGKPMELIIGKKFKLPVWETIVCTMREGEIAQFLCDIKHVVLYPLVAKSLRNIAVGKDPLEGQRHCCGVAQMREHSSLGHADLDALQQNPQPLIFHMEMLKVESPGTYQQDPWAMTDEEKAKAVPLIHQEGNRLYREGHVKEAAAKYYDAIACLKNLQMKEQPGSPEWIQLDQQITPLLLNYCQCKLVVEEYYEVLDHCSSILNKYDDNVKAYFKRGKAHAAVWNAQEAQADFAKVLELDPALAPVVSRELRALEARIRQKDEEDKARFRGIFSH
# partner: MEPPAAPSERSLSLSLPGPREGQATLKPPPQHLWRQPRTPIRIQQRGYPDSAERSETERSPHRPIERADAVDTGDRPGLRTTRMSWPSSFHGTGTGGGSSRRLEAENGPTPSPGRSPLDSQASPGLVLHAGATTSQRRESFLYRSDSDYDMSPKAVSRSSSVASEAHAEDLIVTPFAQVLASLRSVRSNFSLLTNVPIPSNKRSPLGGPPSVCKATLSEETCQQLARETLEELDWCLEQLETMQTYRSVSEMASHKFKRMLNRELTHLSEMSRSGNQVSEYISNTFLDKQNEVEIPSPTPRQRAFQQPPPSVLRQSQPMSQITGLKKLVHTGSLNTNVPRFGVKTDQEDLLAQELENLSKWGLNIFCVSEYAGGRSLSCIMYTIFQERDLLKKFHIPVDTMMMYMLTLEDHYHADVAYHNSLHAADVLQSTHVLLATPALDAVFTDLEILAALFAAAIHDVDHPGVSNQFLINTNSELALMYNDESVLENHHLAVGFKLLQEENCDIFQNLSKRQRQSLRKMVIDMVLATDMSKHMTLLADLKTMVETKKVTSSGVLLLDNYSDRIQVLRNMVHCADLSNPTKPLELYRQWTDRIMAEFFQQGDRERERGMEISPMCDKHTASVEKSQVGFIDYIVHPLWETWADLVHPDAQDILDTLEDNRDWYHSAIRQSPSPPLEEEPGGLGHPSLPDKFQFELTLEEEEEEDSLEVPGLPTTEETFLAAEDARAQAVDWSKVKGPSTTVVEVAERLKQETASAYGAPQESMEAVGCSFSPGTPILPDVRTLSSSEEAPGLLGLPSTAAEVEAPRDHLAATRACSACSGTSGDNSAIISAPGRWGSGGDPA
# Variants of: B1
# Settings: with pde4a_rat Pde4a
row,effect of a mutation on the interaction,Variant
1,decreasing interaction strength,MADIIARLREDGIQKRVIQEGRGELPDFQDGTKATFHYRTLHSDDEGTVLDDSRARGKPMELIIGKKFKLPVWETIVCTMREGEIAQFLCDIKHVVLYPLVAKSLRNIAVGKDPLEGQRHCCGVAQMREHSSLGHADLDALQQNPQPLIFHMEMLKVESPGTYQQDPWAMTDEEKAKAVPLIHQEGNRLYREGHVKEAAAKYYDAIACLKNLQMKEQPGSPEWIQLDQQITPLLLNYCQCKLVVEEYYEVLDHCSSILNKYDDNVKAYFKRGKAHAAVWNAQEAQADFAKVLELDPALVPVVSRELRALEARIRQKDEEDKARFRGIFSH [A299V]
2,disrupting interaction strength,MADIIARLREDGIQKRVIQEGRGELPDFQDGTKATFHYRTLHSDDEGTVLDDSRARGKPMELIIGKKFKLPVWETIVCTMREGEIAQFLCDIKHVVLYPLVARSLRNIAVGKDPLEGQRHCCGVAQMREHSSLGHADLDALQQNPQPLIFHMEMLKVESPGTYQQDPWAMTDEEKAKAVPLIHQEGNRLYREGHVKEAAAKYYDAIACLKNLQMKEQPGSPEWIQLDQQITPLLLNYCQCKLVVEEYYEVLDHCSSILNKYDDNVKAYFKRGKAHAAVWNAQEAQADFAKVLELDPALAPVVSRELRALEARIRQKDEEDKARFRGIFSH [K103R]
3,decreasing interaction strength,MADIIARLREDGIQKRVIQEGRGELPDFQDGTKATFHYRTLHSDDEGTVLDDSRARGKPMELIIGKKFKLPVWETIVCTMREGEIAQFLCDIKHVVLYPLVAKSLRNIAVGKDPLEGQRHCCGVAQMREHSSLGHADLDALQQNPQPLIFHMEMLKVESPGTYQQDPWAMTDEEKAKAVPLIHQEGNRLYREGHVKEAAAKYYDAIACLKNLQMKEQPGSPEWIQLDQQITPLLLNYCQCKLVVEEYYEVLDHCSSVLNKYDDNVKAYFKRGKAHAAVWNAQEAQADFAKVLELDPALAPVVSRELRALEARIRQKDEEDKARFRGIFSH [I257V]
4,decreasing interaction strength,MADIIARLREDGIQKRVIQEGRGELPDFQDGTKATFHYRTLHSDDEGTVLDDSRARGKPMELIIGKKFKLPVWETIVCTMREGEIAQFLCDIKHVVLYPLVAKSLRNIAVGKDPLEGQRHCCGVAQMREHSSLGHADLDALQQNPQPLIFHMEMLKVESPGTYQQDPWAMTDEEKAKAVPLIHQEGNRLYREGHVKEAAAKYYDAIACLKNLQMKEQPGSPEWIQLDQQITPLLLNYCQCKLVVEEYYEVLDHCSSILNKYDDNVKAYFKRGKAHAAVWNAQEAQADFAKVLELDPALAPVVSQELRALEARIRQKDEEDKARFRGIFSH [R304Q]
5,decreasing interaction strength,MADIIARLREDGIQKHVIQEGRGELPDFQDGTKATFHYRTLHSDDEGTVLDDSRARGKPMELIIGKKFKLPVWETIVCTMREGEIAQFLCDIKHVVLYPLVAKSLRNIAVGKDPLEGQRHCCGVAQMREHSSLGHADLDALQQNPQPLIFHMEMLKVESPGTYQQDPWAMTDEEKAKAVPLIHQEGNRLYREGHVKEAAAKYYDAIACLKNLQMKEQPGSPEWIQLDQQITPLLLNYCQCKLVVEEYYEVLDHCSSILNKYDDNVKAYFKRGKAHAAVWNAQEAQADFAKVLELDPALAPVVSRELRALEARIRQKDEEDKARFRGIFSH [R16H]
6,disrupting interaction strength,MADIIARLREDGIQKRVIQEGRGELPDFQDGTKATFHYRTLHSDDEGTVLDDSRARGKPMELIIGKKFKLPVWETIVCTMREGEIAQFLCDIKHVVLYPLVAKSLRNIAVGKDPLEGQRHCCGVAQMREHSSLGHADLDALQQNPQPLIFHMEMLKVESPGTYQQDPWAMTDEEKAKAVPLIHQEGNRLYREGHVKEAAAKYYDAIACLKNLQMKEQPGSPEWIQLDQQITPLLLNYYQCKLVVEEYYEVLDHCSSILNKYDDNVKAYFKRGKAHAAVWNAQEAQADFAKVLELDPALAPVVSRELRALEARIRQKDEEDKARFRGIFSH [C238Y]
7,with no effect,MADIIARLREDGIQKRVIQEGRGELPDFQDGTKATFHYRTLHSDDEGTMLDDSRARGKPMELIIGKKFKLPVWETIVCTMREGEIAQFLCDIKHVVLYPLVAKSLRNIAVGKDPLEGQRHCCGVAQMREHSSLGHADLDALQQNPQPLIFHMEMLKVESPGTYQQDPWAMTDEEKAKAVPLIHQEGNRLYREGHVKEAAAKYYDAIACLKNLQMKEQPGSPEWIQLDQQITPLLLNYCQCKLVVEEYYEVLDHCSSILNKYDDNVKAYFKRGKAHAAVWNAQEAQADFAKVLELDPALAPVVSRELRALEARIRQKDEEDKARFRGIFSH [V49M]
8,disrupting interaction strength,MADIIARLREDGIQKRVIQEGRGELPDFQDGTKATFHYRTLHSDDEGTVLDDSRARGKPMELIIGKKFKLPVWETIVCTMREGEIAQFLCDIKHVVLYPLVAKSLRNIAVGKDPLEGQRHCCGVAQMREHSSLGHADLDALQQNPQPLIFHMEMLKVESPGTYQQDPWAMTDEEKAKAVPLIHQEGNRLYREGHVKEAAAKYYDAIACLKNLQMKEQPGSPEWIQLDQQITPLLLNYCQCKLVVEEYYEVLDHCSSILNKYDDNVKAYFKWGKAHAAVWNAQEAQADFAKVLELDPALAPVVSRELRALEARIRQKDEEDKARFRGIFSH [R271W]
9,disrupting interaction strength,MADIIARLREDGIQKRVIQEGRGELPDFQDGTKATFHYRTLHSDDEGTVLDDSRARGKPMELIIGKKFKLPVWETIVCTMREGEIAQFLCDIKHVVLYPLVAKSLRNIAVGKDPLEGQRHCCGVAQMREHSSLGHADLDALQQNPQPLIFHMEMLKVESPGTYQQDPWAMTDEEKAKAVPLIHQEGNRLYREGHVKEAAAKYYDAIACLKNLQMKEQPGSPEWIQLDQQITPLLLNYCQCELVVEEYYEVLDHCSSILNKYDDNVKAYFKRGKAHAAVWNAQEAQADFAKVLELDPALAPVVSRELRALEARIRQKDEEDKARFRGIFSH [K241E]
